Measured values taken from publication PMC7023979.

Molecular target: SIVrcm integrase A119D (simian immunodeficiency virus from red-capped mangabeys (SIVrcm))
Test: cryo-EM structure

SIVrcm integrase A119D (enzyme)
stoichiometry N: 4
